Source: paper PMC3237451, “Missense Mutation in the Second RNA Binding Domain Reveals a Role for Prkra (PACT/RAX) during Skull Development”

Target: T1, His-RAX WT (PACT) (Mus musculus (cDNA from L929 cells), UniProt Q9WTX2 1-313)
T1 sequence: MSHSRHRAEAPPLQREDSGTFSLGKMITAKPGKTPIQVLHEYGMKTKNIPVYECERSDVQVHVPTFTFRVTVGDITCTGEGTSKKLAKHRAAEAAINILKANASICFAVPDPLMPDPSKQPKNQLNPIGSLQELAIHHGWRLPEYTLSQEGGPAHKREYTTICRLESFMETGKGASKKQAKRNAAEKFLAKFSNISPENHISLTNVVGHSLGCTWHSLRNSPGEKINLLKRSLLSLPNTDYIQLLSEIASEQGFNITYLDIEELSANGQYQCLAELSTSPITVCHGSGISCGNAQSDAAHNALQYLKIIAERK
Test: EMSA; 1 uM His-RAX; 25 fmol probe; competed by poly(I:C); 20 mM Tris pH 7.5, 50 mM KCl, 2 mM MgCl2, 2 mM MnCl2, 5% glycerol; EMSA 15 min at room temperature, 5% acrylamide gel in 0.25x TBE run cold
Settings: protein: recombinant; blunt

B1: 30-bp dsRNA probe (dsRNA)
RNA 1: GGGAACAAAAGCUGGGUACCGGGCCCCCCC
RNA 2: GGGGGGGCCCGGUACCCAGCUUUUGUUCCC
binding result: binds
